From patent WO2017153426A1 (dated 2017)

Target: native TSLP (supernatant from stimulated human lung fibroblasts) (human, UniProt Q969D9 29-159, limits assumed)
Experiment: cell-based or functional assay

- Geometric Mean IC50, inhibition of TSLP-induced pSTAT5 in SW756 cells: 0.86 nM
B1: DOM30h-440-81/86 (other)
chain: DIQMTQSPSSLSASVGDRVTITCRASRPIRNWLDWYQQKPGKAPKLLIWGASHLQSGVPSRFSGSGSGTDFTLTISSLQPEDFATYYCVQIGEDPVTFGQGTKVEIK
